Like-named read-outs stand apart in the source and are kept apart here.
Legend:
cynomolgus monkey 4-1BB = molecular target: T1, cynomolgus monkey 4-1BB (cynomolgus monkey); assay: FACS
T1 chain: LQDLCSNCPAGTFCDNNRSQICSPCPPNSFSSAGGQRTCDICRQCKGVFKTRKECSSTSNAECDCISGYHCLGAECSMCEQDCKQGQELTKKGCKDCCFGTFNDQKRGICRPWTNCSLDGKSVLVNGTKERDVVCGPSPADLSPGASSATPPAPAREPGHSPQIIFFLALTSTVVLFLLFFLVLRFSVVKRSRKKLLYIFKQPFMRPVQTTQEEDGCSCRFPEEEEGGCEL

human PSMA [1] = molecular target: T2, human PSMA (human, UniProt Q04609 1-750); assay: FACS binding to LNCaP cells
T2 sequence (Q04609 whole entry): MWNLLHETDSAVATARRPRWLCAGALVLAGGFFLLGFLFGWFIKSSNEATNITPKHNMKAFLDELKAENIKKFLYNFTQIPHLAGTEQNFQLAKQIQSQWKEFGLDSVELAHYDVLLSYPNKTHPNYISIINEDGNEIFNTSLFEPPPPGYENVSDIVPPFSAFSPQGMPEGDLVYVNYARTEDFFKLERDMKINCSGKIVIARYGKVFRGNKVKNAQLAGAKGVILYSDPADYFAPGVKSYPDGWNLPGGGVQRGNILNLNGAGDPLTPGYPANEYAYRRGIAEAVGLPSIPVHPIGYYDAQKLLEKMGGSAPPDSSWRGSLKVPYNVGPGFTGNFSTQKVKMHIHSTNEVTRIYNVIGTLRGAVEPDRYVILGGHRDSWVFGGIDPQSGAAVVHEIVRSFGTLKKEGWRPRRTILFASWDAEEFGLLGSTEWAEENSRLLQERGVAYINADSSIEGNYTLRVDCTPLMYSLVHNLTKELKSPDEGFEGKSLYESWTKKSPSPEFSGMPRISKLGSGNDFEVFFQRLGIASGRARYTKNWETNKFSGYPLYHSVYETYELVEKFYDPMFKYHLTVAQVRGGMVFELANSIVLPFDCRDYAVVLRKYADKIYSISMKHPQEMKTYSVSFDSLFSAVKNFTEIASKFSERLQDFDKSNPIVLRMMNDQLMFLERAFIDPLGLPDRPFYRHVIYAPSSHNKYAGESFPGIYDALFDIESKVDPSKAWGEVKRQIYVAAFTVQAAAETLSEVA

human 4-1BB [2] = molecular target: T3, human 4-1BB (human, UniProt Q07011 24-255); assay: FACS
human OX40 = molecular target: T4, human OX40 (human, UniProt P43489 29-277); assay: FACS
T4 chain: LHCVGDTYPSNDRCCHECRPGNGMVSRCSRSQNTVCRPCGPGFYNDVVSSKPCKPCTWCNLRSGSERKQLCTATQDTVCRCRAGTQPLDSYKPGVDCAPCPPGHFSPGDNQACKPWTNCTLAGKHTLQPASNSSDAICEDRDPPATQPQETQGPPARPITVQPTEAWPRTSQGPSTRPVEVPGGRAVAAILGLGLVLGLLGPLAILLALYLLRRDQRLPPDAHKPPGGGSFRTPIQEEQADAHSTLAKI

human PSMA [3] = molecular target: T2, human PSMA; assay: FACS binding to LNCaP cells; remark: listed apart in the source
human 4-1BB [4] = molecular target: T3, human 4-1BB; assay: FACS; remark: listed apart in the source
human 4-1BB [5] = molecular target: T3, human 4-1BB; assay: FACS; remark: listed apart in the source
human PD-L1 [6] = molecular target: T5, human PD-L1 (human, UniProt Q9NZQ7 19-290); assay: FACS
T5 sequence (Q9NZQ7 19-290): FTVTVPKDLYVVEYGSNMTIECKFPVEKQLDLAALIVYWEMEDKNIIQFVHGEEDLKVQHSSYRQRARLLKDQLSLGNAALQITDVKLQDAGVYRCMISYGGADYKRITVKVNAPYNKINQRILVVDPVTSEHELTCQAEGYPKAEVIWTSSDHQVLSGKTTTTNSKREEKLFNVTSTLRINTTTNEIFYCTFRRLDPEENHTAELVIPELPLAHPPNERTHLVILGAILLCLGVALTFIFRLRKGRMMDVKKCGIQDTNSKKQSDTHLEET

human PD-L1 [7] = molecular target: T5, human PD-L1; assay: FACS binding to CHO-K1/hPD-L1 cells

B1: PR001758, anti-4-1BB heavy-chain antibody 1016P0010B11 (antibody, V domains shown)
VH: EVQLLESGGGLVQLGGSLRLSCAASGFTFSRYAMTWVRQAPEKGLEWVSSISGSGDDTYYGDSVKGRFTISRDNSQNTVYLQMNSLRAEDTAVYFCAKEKAGTTGDYYYNVDVWGQGTTVTVSS
- EC50 (cynomolgus monkey 4-1BB): 0.575 nM

B2: PR003557 (bispecific antibody)
light: DIQMTQSPSSLSASIGDRVTITCRASQSINSYLNWYQQKPGKAPKLLIYTASSLLSGVPSRFSASGSWTDFSLTISSLQPEDFATYYCQQSFSTPYTFGQGTNLEIKRTVAAPSVFIFPPSDEQLKSGTASVVCLLNNFYPREAKVQWKVDNALQSGNSQESVTEQDSKDSTYSLSSTLTLSKADYEKHKVYACEVTHQGLSSPVTKSFNRGEC
heavy: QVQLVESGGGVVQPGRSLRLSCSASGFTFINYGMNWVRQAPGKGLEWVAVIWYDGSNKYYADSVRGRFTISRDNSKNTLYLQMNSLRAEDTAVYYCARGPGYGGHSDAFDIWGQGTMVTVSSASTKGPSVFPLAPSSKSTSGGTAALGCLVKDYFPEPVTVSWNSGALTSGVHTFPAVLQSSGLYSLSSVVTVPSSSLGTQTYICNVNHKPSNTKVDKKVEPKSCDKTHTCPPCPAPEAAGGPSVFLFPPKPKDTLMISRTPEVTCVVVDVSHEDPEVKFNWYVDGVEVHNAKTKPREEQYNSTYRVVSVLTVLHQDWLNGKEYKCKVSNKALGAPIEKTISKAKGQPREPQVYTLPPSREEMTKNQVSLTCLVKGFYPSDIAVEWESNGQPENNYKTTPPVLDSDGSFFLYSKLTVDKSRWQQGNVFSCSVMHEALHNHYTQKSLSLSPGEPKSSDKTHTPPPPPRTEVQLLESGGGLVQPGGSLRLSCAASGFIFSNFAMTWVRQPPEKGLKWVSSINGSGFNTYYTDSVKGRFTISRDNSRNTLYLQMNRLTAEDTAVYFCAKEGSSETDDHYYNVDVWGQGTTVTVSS
- EC50 (human PSMA [1]): 0.876 nM
- EC50 (human 4-1BB [2]): 0.951 nM

B3: PR003555 (bispecific antibody)
light: B2 light
heavy: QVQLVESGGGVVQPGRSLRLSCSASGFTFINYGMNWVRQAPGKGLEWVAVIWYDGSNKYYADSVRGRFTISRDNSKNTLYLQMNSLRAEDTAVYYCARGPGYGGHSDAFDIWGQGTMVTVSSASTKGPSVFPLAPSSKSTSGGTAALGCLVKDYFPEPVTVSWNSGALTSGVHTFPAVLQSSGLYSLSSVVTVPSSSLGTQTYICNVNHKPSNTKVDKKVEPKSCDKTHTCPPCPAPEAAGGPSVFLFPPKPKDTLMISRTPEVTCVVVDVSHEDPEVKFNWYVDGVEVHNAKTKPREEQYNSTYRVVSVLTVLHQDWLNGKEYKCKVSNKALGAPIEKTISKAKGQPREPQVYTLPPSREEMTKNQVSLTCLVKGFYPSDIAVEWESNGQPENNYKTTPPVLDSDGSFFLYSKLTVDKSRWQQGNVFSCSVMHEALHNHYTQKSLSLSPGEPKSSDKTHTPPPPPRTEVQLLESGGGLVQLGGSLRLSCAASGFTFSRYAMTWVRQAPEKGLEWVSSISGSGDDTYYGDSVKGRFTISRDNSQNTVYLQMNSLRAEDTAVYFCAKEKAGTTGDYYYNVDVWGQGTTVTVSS
- EC50 (human PSMA [1]): 0.802 nM
- EC50 (human 4-1BB [2]): 0.819 nM

B4: PR004284 (bispecific antibody)
light: B2 light
heavy: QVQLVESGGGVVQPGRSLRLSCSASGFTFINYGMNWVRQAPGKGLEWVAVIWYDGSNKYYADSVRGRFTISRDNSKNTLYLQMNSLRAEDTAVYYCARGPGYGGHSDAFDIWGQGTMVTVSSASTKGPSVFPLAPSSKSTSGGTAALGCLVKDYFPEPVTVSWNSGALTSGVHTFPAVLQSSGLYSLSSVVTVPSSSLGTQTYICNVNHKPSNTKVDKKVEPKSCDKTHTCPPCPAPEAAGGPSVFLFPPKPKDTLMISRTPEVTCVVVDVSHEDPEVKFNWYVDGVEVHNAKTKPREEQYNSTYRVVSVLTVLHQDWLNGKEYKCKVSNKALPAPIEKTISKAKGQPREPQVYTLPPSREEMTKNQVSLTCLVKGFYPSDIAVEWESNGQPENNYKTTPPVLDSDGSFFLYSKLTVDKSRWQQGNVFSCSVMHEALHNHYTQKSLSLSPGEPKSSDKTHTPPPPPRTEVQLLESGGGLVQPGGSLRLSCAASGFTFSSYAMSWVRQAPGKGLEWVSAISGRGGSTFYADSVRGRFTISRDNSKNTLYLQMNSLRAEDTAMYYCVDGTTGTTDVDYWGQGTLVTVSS
- EC50 (human OX40): 4.96 nM
- EC50 (human PSMA [3]): 6.7 nM

B5: PR003556 (bispecific antibody)
light: B2 light
heavy: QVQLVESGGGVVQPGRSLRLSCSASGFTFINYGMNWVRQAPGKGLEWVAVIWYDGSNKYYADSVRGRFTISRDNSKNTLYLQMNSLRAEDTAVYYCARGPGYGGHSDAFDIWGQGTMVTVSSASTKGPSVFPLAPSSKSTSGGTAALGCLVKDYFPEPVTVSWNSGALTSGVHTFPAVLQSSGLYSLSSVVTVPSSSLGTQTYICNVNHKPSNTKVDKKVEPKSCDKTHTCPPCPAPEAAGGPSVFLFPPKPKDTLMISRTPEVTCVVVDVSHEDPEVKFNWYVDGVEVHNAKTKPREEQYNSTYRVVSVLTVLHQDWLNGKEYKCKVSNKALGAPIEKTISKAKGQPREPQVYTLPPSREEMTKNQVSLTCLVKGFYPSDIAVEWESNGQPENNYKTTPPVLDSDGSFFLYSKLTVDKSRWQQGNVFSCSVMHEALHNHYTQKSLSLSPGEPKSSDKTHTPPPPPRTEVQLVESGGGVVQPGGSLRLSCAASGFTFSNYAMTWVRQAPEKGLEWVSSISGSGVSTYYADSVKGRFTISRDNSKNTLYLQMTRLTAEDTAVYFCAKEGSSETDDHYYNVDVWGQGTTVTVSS
- EC50 (human PSMA [1]): 0.687 nM
- EC50 (human 4-1BB [2]): 0.476 nM

B6: PR003562 (bispecific antibody)
light: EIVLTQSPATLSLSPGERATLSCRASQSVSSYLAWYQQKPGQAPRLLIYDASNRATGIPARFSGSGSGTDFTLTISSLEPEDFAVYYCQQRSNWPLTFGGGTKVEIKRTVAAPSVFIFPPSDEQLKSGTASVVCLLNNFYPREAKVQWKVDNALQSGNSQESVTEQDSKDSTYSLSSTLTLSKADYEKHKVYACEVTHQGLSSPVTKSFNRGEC
heavy: EVQLLESGGGLVQPGGSLRLSCAASGFTFSSFVMSWVRQAPGKGLEWVSTISGSGRSTYYADSVKGRFTISRDNSKNTLHLQMNSLRAEDTAVYYCAKDAAAAGTKFDYWGQGTLVTVSSASTKGPSVFPLAPSSKSTSGGTAALGCLVKDYFPEPVTVSWNSGALTSGVHTFPAVLQSSGLYSLSSVVTVPSSSLGTQTYICNVNHKPSNTKVDKKVEPKSCDKTHTCPPCPAPEAAGGPSVFLFPPKPKDTLMISRTPEVTCVVVDVSHEDPEVKFNWYVDGVEVHNAKTKPREEQYNSTYRVVSVLTVLHQDWLNGKEYKCKVSNKALGAPIEKTISKAKGQPREPQVYTLPPSREEMTKNQVSLTCLVKGFYPSDIAVEWESNGQPENNYKTTPPVLDSDGSFFLYSKLTVDKSRWQQGNVFSCSVMHEALHNHYTQKSLSLSPGEPKSSDKTHTPPPPPRTEVQLLESGGGLVQLGGSLRLSCAASGFTFSRYAMTWVRQAPEKGLEWVSSISGSGDDTYYGDSVKGRFTISRDNSQNTVYLQMNSLRAEDTAVYFCAKEKAGTTGDYYYNVDVWGQGTTVTVSS
- EC50 (human 4-1BB [4]): 1.87 nM

B7: PR003551 (bispecific antibody)
light: DIQMTQSPSTLSASVGDRVTVTCRASQSIYIWLAWYQQKPGKAPNLLIYKASSLETGVPSRFSGSGSGTEFTLTISSLQPDDFATYYCQQYYGSSRTFGQGTKVEIKRTVAAPSVFIFPPSDEQLKSGTASVVCLLNNFYPREAKVQWKVDNALQSGNSQESVTEQDSKDSTYSLSSTLTLSKADYEKHKVYACEVTHQGLSSPVTKSFNRGEC
heavy: EVQLVESGGGLVQPGGSLRLSCAASGFTFSSYWMSWVRQAPGKGLEWVANIKQEGSEKYYVDSVKGRFTISRDNAKNSLYLQMNSLRAEDTAVYYCARDRAVAGAFDIWGQGTMVTVSSASTKGPSVFPLAPSSKSTSGGTAALGCLVKDYFPEPVTVSWNSGALTSGVHTFPAVLQSSGLYSLSSVVTVPSSSLGTQTYICNVNHKPSNTKVDKKVEPKSCDKTHTCPPCPAPEAAGGPSVFLFPPKPKDTLMISRTPEVTCVVVDVSHEDPEVKFNWYVDGVEVHNAKTKPREEQYNSTYRVVSVLTVLHQDWLNGKEYKCKVSNKALGAPIEKTISKAKGQPREPQVYTLPPSREEMTKNQVSLTCLVKGFYPSDIAVEWESNGQPENNYKTTPPVLDSDGSFFLYSKLTVDKSRWQQGNVFSCSVMHEALHNHYTQKSLSLSPGEPKSSDKTHTPPPPPRTEVQLLESGGGLVQPGGSLRLSCAASGFIFSNFAMTWVRQPPEKGLKWVSSINGSGFNTYYTDSVKGRFTISRDNSRNTLYLQMNRLTAEDTAVYFCAKEGSSETDDHYYNVDVWGQGTTVTVSS
- EC50 (human 4-1BB [5]): 3.15 nM
- EC50 (human PD-L1 [6]): 1.29 nM

B8: PR003789 (bispecific antibody)
light: B7 light
heavy: EVQLVESGGGLVQPGGSLRLSCAASGFTFSSYWMSWVRQAPGKGLEWVANIKQEGSEKYYVDSVKGRFTISRDNAKNSLYLQMNSLRAEDTAVYYCARDRAVAGAFDIWGQGTMVTVSSASTKGPSVFPLAPSSKSTSGGTAALGCLVKDYFPEPVTVSWNSGALTSGVHTFPAVLQSSGLYSLSSVVTVPSSSLGTQTYICNVNHKPSNTKVDKKVEPKSCDKTHTCPPCPAPEAAGGPSVFLFPPKPKDTLMISRTPEVTCVVVDVSHEDPEVKFNWYVDGVEVHNAKTKPREEQYNSTYRVVSVLTVLHQDWLNGKEYKCKVSNKALGAPIEKTISKAKGQPREPQVYTLPPSREEMTKNQVSLTCLVKGFYPSDIAVEWESNGQPENNYKTTPPVLDSDGSFFLYSKLTVDKSRWQQGNVFSCSVMHEALHNHYTQKSLSLSPGAEPKSSDKTHTPPPPPEVQLLESGGGLVQPGGSLRLSCAASGFTFSSYAMSWVRQAPGKGLEWVSAISGRGGSTFYADSVRGRFTISRDNSKNTLYLQMNSLRAEDTAMYYCVDGTTGTTDVDYWGQGTLVTVSS
- EC50 (human OX40): 3.98 nM
- EC50 (human PD-L1 [7]): 1.37 nM

B9: PR003549 (bispecific antibody)
light: B7 light
heavy: EVQLVESGGGLVQPGGSLRLSCAASGFTFSSYWMSWVRQAPGKGLEWVANIKQEGSEKYYVDSVKGRFTISRDNAKNSLYLQMNSLRAEDTAVYYCARDRAVAGAFDIWGQGTMVTVSSASTKGPSVFPLAPSSKSTSGGTAALGCLVKDYFPEPVTVSWNSGALTSGVHTFPAVLQSSGLYSLSSVVTVPSSSLGTQTYICNVNHKPSNTKVDKKVEPKSCDKTHTCPPCPAPEAAGGPSVFLFPPKPKDTLMISRTPEVTCVVVDVSHEDPEVKFNWYVDGVEVHNAKTKPREEQYNSTYRVVSVLTVLHQDWLNGKEYKCKVSNKALGAPIEKTISKAKGQPREPQVYTLPPSREEMTKNQVSLTCLVKGFYPSDIAVEWESNGQPENNYKTTPPVLDSDGSFFLYSKLTVDKSRWQQGNVFSCSVMHEALHNHYTQKSLSLSPGEPKSSDKTHTPPPPPRTEVQLLESGGGLVQLGGSLRLSCAASGFTFSRYAMTWVRQAPEKGLEWVSSISGSGDDTYYGDSVKGRFTISRDNSQNTVYLQMNSLRAEDTAVYFCAKEKAGTTGDYYYNVDVWGQGTTVTVSS
- EC50 (human 4-1BB [5]): 1.9 nM
- EC50 (human PD-L1 [6]): 1.56 nM

B10: Anti-4-1BB monoclonal antibody utomilumab analog (antibody, V domains shown)
VH: EVQLVQSGAEVKKPGESLRISCKGSGYSFSTYWISWVRQMPGKGLEWMGKIYPGDSYTNYSPSFQGQVTISADKSISTAYLQWSSLKASDTAMYYCARGYGIFDYWGQGTLVTVSS
VL: SYELTQPPSVSVSPGQTASITCSGDNIGDQYAHWYQQKPGQSPVLVIYQDKNRPSGIPERFSGSNSGNTATLTISGTQAMDEADYYCATYTGFGSLAVFGGGTKLTVLG
- EC50 (cynomolgus monkey 4-1BB): 0.485 nM

B11: PR003563 (bispecific antibody)
light: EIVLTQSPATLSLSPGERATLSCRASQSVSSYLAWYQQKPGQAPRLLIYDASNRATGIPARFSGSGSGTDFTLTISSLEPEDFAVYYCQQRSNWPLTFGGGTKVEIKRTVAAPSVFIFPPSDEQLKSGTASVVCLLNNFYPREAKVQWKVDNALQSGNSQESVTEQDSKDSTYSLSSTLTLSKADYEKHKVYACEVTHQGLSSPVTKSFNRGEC
heavy: EVQLLESGGGLVQPGGSLRLSCAASGFTFSSFVMSWVRQAPGKGLEWVSTISGSGRSTYYADSVKGRFTISRDNSKNTLHLQMNSLRAEDTAVYYCAKDAAAAGTKFDYWGQGTLVTVSSASTKGPSVFPLAPSSKSTSGGTAALGCLVKDYFPEPVTVSWNSGALTSGVHTFPAVLQSSGLYSLSSVVTVPSSSLGTQTYICNVNHKPSNTKVDKKVEPKSCDKTHTCPPCPAPEAAGGPSVFLFPPKPKDTLMISRTPEVTCVVVDVSHEDPEVKFNWYVDGVEVHNAKTKPREEQYNSTYRVVSVLTVLHQDWLNGKEYKCKVSNKALGAPIEKTISKAKGQPREPQVYTLPPSREEMTKNQVSLTCLVKGFYPSDIAVEWESNGQPENNYKTTPPVLDSDGSFFLYSKLTVDKSRWQQGNVFSCSVMHEALHNHYTQKSLSLSPGEPKSSDKTHTPPPPPRTEVQLVESGGGVVQPGGSLRLSCAASGFTFSNYAMTWVRQAPEKGLEWVSSISGSGVSTYYADSVKGRFTISRDNSKNTLYLQMTRLTAEDTAVYFCAKEGSSETDDHYYNVDVWGQGTTVTVSS
- EC50 (human 4-1BB [4]): 1.65 nM

B12: PR001331, anti-PSMA monoclonal antibody 2E8A1B1 hIgG1 (antibody, V domains shown)
VH: QVQLVESGGGVVQPGRSLRLSCSASGFTFINYGMNWVRQAPGKGLEWVAVIWYDGSNKYYADSVRGRFTISRDNSKNTLYLQMNSLRAEDTAVYYCARGPGYGGHSDAFDIWGQGTMVTVSS
VL: DIQMTQSPSSLSASIGDRVTITCRASQSINSYLNWYQQKPGKAPKLLIYTASSLLSGVPSRFSASGSWTDFSLTISSLQPEDFATYYCQQSFSTPYTFGQGTNLEIKR
- EC50 (human PSMA [1]): 0.702 nM
- EC50 (human PSMA [3]): 2.58 nM

Reference: patent US20230303698A1 (published 2023)
